# B1: lactoferrin: Bovine lactoferrin, iron-binding glycoprotein of milk (Sigma cat. # L9507 or DMV International Nutritionals) (protein, UniProt P24627 20-708, looked up)
# Lactotransferrin: APRKNVRWCTISQPEWFKCRRWQWRMKKLGAPSITCVRRAFALECIRAIAEKKADAVTLDGGMVFEAGRDPYKLRPVAAEIYGTKESPQTHYYAVAVVKKGSNFQLDQLQGRKSCHTGLGRSAGWIIPMGILRPYLSWTESLEPLQGAVAKFFSASCVPCIDRQAYPNLCQLCKGEGENQCACSSREPYFGYSGAFKCLQDGAGDVAFVKETTVFENLPEKADRDQYELLCLNNSRAPVDAFKECHLAQVPSHAVVARSVDGKEDLIWKLLSKAQEKFGKNKSRSFQLFGSPPGQRDLLFKDSALGFLRIPSKVDSALYLGSRYLTTLKNLRETAEEVKARYTRVVWCAVGPEEQKKCQQWSQQSGQNVTCATASTTDDCIVLVLKGEADALNLDGGYIYTAGKCGLVPVLAENRKSSKHSSLDCVLRPTEGYLAVAVVKKANEGLTWNSLKDKKSCHTAVDRTAGWNIPMGLIVNQTGSCAFDEFFSQSCAPGADPKSRLCALCAGDDQGLDKCVPNSKEKYYGYTGAFRCLAEDVGDVAFVKNDTVWENTNGESTADWAKNLNREDFRLLCLDGTRKPVTEAQSCHLAVAPNHAVVSRSDRAAHVKQVLLHQQALFGKNGKNCPDKFCLFKSETKNLLFNDNTECLAKLGGRPTYEEYLGTEYVTAIANLKKCSTSPLLEACAFLTR
# Test system: Oxidatively competent cells
# Test: Antimycin A-induced cell death in oxidatively competent cells, SYTOX assay after 4 hours
# Format: cell-based, rat-human hybrid (GCL1)
# Details: lactoferrin alone at 100 μg/ml
# From the text: The GCL1 (WiF-B) liver cell line is a hybrid originating from the fusion of rat hepatoma cells (fao) and human fibroblasts (W138). Cassio et al. (1991) J. Cell Biol. 115:1397-1408; Shanks et al. (1994) J. Cell Science 107:813-825. […] Ihrke et al. 1993, J. Cell Biol. 123:1761-1775. At greater than 80% confluence, more than 80% of the cells participate in forming one or more phaselucent, spherical structures that are located between cells, termed bile canicular-like spaces. In contrast to the majority of cell lines maintained in culture which are fermentative, GCL1 cells, when at their maximal density and polarity, are highly oxidative (i.e., they can be readily killed by inhibitors of oxidative phosphorylation or electron transport uncouplers). […] These cells are amenable to use in high throughput screening (HTS) technology.
# Energetically competent cells are seeded onto 96-well plates at 1×10^3/well or 2.5×10^3/well as passage 15. The cells are grown in DMEM with 10% FBS and 1.5 g/L sodium bicarbonate for 24 or 48 hours to reach 85% confluence. The cells are washed once with HBSS and then 100 μl of HBSS containing different concentration of AA (Sigma Chemical Co., Cat # A 8674) is added to the cells. AA is dissolved in DMSO to make a stock solution of 50 mM, then diluted with HBSS to 100, 50, 25, 12.5, 6.25, 3.125, and 1.56 μM for dose-response curves. […]
molecule,measurement,setting,value
B1,cell death,"Example 8, experiment with (+/−)-alpha tocopherol",85.9%
same,cell death,"Example 8, experiment with alpha-tocopherol Type V",96%
